The target in test [1] is human CCR5 expressed on the cell surface (human) (UniProt P51681). Put plainly: cell-based or functional assay.
The target in test [2] is CD4 on CD4+ target cells (human) (UniProt P01730). The experiment in a line: cell-based or functional assay.

Sequence of recombinant human MIP-1β (P13236 24-92 limits assumed): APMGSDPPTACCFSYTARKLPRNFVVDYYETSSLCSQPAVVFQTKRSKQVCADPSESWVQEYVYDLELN
Sequence of recombinant human RANTES (P13501 24-91): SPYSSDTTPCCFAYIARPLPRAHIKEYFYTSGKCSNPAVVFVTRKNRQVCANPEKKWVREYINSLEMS
Sequence of recombinant human MIP-1α (P10147 27-92 limits assumed): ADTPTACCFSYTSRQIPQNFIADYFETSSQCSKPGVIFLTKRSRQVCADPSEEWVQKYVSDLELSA

Consider RANTES + MIP-1α + MIP-1β, for which, in test [1], the % Fusion (RET assay), LW5 CD4+ cells with HeLa-JR-FL cells; R/Mα/Mβ 106/533/133 ng/ml is 39%; the % Fusion (RET assay), PM1 cells with HeLa-JR-FL cells; R/Mα/Mβ 80/400/100 ng/ml was found to be 1%; the % luciferase activity, entry of ADA env-complemented virus into PM1 cells; R/Mα/Mβ 50/50/50 ng/ml stood at 3%; the % luciferase activity, entry of BaL env-complemented virus into PM1 cells; R/Mα/Mβ 50/50/50 ng/ml was 2%. Also, in test [1], the % luciferase activity, entry of JR-FL env-complemented virus into LW4 CD4+ T-cells; R/Mα/Mβ 200/200/200 ng/ml turned out to be 14%; the % luciferase activity, entry of JR-FL env-complemented virus into LW5 CD4+ T-cells; R/Mα/Mβ 200/200/200 ng/ml amounted to 15%; the luciferase activity, ADA entry into 3T3-CD4 cells expressing CKR-5, with R/Mα/Mβ 400 ng/ml each (28400 without) (luciferase activity (unit not given)) is 1220; the luciferase activity, ADA entry into COS-CD4 cells expressing CKR-5, with R/Mα/Mβ 400 ng/ml each (153000 without) (luciferase activity (unit not given)) is 3210. Moreover, in test [1], the luciferase activity, ADA entry into HeLa-CD4 cells expressing CKR-5, with R/Mα/Mβ 400 ng/ml each (310000 without) (luciferase activity (unit not given)) was found to be 6340; the luciferase activity, BaL entry into 3T3-CD4 cells expressing CKR-5, with R/Mα/Mβ 400 ng/ml each (11700 without) (luciferase activity (unit not given)) turned out to be 756; the luciferase activity, BaL entry into COS-CD4 cells expressing CKR-5, with R/Mα/Mβ 400 ng/ml each (58800 without) (luciferase activity (unit not given)) amounted to 756; the luciferase activity, BaL entry into HeLa-CD4 cells expressing CKR-5, with R/Mα/Mβ 400 ng/ml each (104000 without) (luciferase activity (unit not given)) stood at 750.

In test [2], monoclonal antibody OKT4A returned a % Fusion (RET assay), LW5 CD4+ cells with HeLa-BRU cells; OKT4A 3 ug/ml of 0% and a % Fusion (RET assay), LW5 CD4+ cells with HeLa-JR-FL cells; OKT4A 3 ug/ml of 0%.

Consider “recombinant human MIP-1α (from UniProt P10147 27-92) (ligand)”, for which, in test [1], the % Fusion (RET assay), LW5 CD4+ cells with HeLa-JR-FL cells; MIP-1α 533 ng/ml worked out at 72%; the % Fusion (RET assay), PM1 cells with HeLa-JR-FL cells; MIP-1α 400 ng/ml was 39%; the % luciferase activity, entry of ADA env-complemented virus into PM1 cells; MIP-1α 100 ng/ml was 54%; the % luciferase activity, entry of BaL env-complemented virus into PM1 cells; MIP-1α 100 ng/ml stood at 54%.

In test [1], “recombinant human MIP-1β (from UniProt P13236 24-92) (ligand)” yielded a % Fusion (RET assay), LW5 CD4+ cells with HeLa-JR-FL cells; MIP-1β 133 ng/ml of 44%; a % Fusion (RET assay), PM1 cells with HeLa-JR-FL cells; MIP-1β 100 ng/ml of 13%; a % luciferase activity, entry of ADA env-complemented virus into PM1 cells; MIP-1β 100 ng/ml of 6%; a % luciferase activity, entry of BaL env-complemented virus into PM1 cells; MIP-1β 100 ng/ml of 1%.

In test [1], “recombinant human RANTES (from UniProt P13501 24-91) (ligand)” came in with a % Fusion (RET assay), LW5 CD4+ cells with HeLa-JR-FL cells; RANTES 106 ng/ml of 65%; a % Fusion (RET assay), PM1 cells with HeLa-JR-FL cells; RANTES 80 ng/ml of 8%; a % luciferase activity, entry of ADA env-complemented virus into PM1 cells; RANTES 100 ng/ml of 1%; a % luciferase activity, entry of BaL env-complemented virus into PM1 cells; RANTES 100 ng/ml of 1%.

These data come from patent US7858298.
